Reference: patent publication US20150010546A1 (Ablynx, published 2015)
Blank lines part the entries; values can stand above or below the binder they belong to.

Legend:
[1] = target: T1, human HGF (R&D Systems, 294-HG/CF) (human, UniProt P14210 32-728); experiment: AlphaScreen competition, serial dilution of purified Nanobody; inhibition of biotinylated human HGF binding to c-Met-Fc
T1 construct: The entry begins at QRKRR, without signal peptide; Amine-coupled to the chip in SPR and biotinylated in AlphaScreen; also called rec hHGF (R&D systems)
Experimental: (§1) In brief, 5 μl of 1/5 prediluted periplasmic extract of individual Nanobody clones were incubated with 3 nM biotinylated HGF, 2 nM c-Met-Fc, streptavidin coated donor beads and anti-human IgG1 Fc Nanobody covalently coupled AlphaScreen acceptor beads. Monoclonal antibody clone 24612 (R&D systems) known to inhibit the HGF/c-Met-Fc interaction, was used as a positive control. Assays were read in an Envision AlphaScreen™ option fitted multimode reader (Perkin Elmer). Individual clones were scored as putative HGF/c-Met-Fc interaction inhibiting if the presence of the periplasmic extract decreased the fluorescent signal of the acceptor beads. Both inhibitory and non-inhibitory clones were identified. A 10-fold reduction in signal with respect to the negative control (irrelevant periplasmic extract and buffer) was used to select the HGF/c-Met inhibiting Nanobodies. As a positive control, anti-HGF monoclonal antibody (R&D systems, clone 24612) was included. FIG. 2 depicts an example of screen of periplasmic extracts using AlphaScreen.
(§2) Serial dilutions of purified Nanobodies were then analyzed for their ability to block the interaction of human HGF with c-Met-Fc using the same AlphaScreen™ assay as described above (1.4). […]

[2] = target: T1, human HGF (R&D Systems, 294-HG/CF); experiment: SPR (Biacore T100), HGF amine-coupled to CM5 chip, periplasmic extract at one dilution
Experimental: Off-rate constants (Koff) of individual Nanobodies were determined by surface plasmon resonance on a Biacore T100 instrument.
Human HGF (R&D) was amine-coupled to a CM5 sensor chip at a density of 2500 relative units. Remaining reactive groups were inactivated using ethanolamine. Nanobody binding was assessed at a single dilution of periplasmic extract, whereas c-Met was tested with a single concentration of 10 nM. Each sample was injected for 2 min at a flow rate of 45 μl/min to allow for binding to chip-bound antigen. Next, binding buffer without Nanobody was sent over the chip at the same flow rate to allow dissociation of bound Nanobody. After 10 min, remaining bound analyte was removed by injecting regeneration solution (1M NaCl, 50 mM NaOH).

[3] = target: T2, human HGF (R&D material and Peprotech material, values averaged over both) (human, UniProt P14210 32-728); experiment: SPR (Biacore T100), purified Nanobody, biphasic dissociation, kd2 fitted 300-720 s after injection start
T2 construct: As printed they differ in one letter

[4] = target: T2, human HGF (R&D material and Peprotech …); experiment: SPR (Biacore T100), purified Nanobody, biphasic dissociation, kd1 fitted 125-185 s after injection start
[5] = target: T2, human HGF (R&D material and Peprotech …); experiment: SPR (Biacore T100), summary table
[6] = target: T2, human HGF (R&D material and Peprotech …); experiment: SPR (Biacore T100), purified Nanobody, biphasic dissociation, kd1 fitted 125-185 s after injection start; kd1: early phase of the bi-phasic dissociation, fitted 125 to 185 seconds after injection start
[7] = target: T1, human HGF (R&D Systems, 294-HG/CF); experiment: AlphaScreen competition, biotinylated HGF and c-Met-Fc, dilution series of purified Nanobody
Experimental: as §1, §2

T1 sequence (P14210 32-728 limits assumed): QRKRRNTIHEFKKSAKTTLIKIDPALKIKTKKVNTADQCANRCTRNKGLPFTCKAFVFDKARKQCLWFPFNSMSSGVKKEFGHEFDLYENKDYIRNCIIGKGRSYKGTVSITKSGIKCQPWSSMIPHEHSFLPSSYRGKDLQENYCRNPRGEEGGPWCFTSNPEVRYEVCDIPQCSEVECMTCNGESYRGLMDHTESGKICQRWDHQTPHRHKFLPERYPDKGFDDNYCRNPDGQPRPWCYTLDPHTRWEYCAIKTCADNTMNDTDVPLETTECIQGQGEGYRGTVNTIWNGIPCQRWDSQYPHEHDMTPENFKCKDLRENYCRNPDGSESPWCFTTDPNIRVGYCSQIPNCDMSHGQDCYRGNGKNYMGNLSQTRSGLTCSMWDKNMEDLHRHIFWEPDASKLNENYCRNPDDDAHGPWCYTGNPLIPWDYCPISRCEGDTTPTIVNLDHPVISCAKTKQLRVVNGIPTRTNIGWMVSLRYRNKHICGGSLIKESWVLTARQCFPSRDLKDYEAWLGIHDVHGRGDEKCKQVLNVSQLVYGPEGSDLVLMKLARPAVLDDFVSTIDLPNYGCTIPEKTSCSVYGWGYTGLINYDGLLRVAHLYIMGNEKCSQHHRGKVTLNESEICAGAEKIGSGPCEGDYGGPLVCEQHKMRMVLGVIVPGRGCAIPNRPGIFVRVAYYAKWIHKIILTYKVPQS
T2 sequence (P14210 32-728 limits assumed): as above

- IC50 (read off the curve) [1]: ~10 nM
- koff [2]: 0.0019 s⁻¹
- koff [3]: 0.000821 s⁻¹
- koff [4]: 0.00605 s⁻¹
B1: 5C7 (VHH)
VHH: EVQLVESGGGLVQAGDSLRLSCAASGGTFGSSHMAWFRQVPEKEREFVAAISRSGGTTYYADSVKGRCTISRDNAKNTVYLQMNSLKPEDTAVYYCAAARFWGSTSTRMDDYQYWGQGTQVTVSS
notes: anti-HGF Nanobody clone; not shown: c-myc and His6 tags

- koff [5]: 0.001 s⁻¹
- koff [6]: 0.00241 s⁻¹
- IC50 [7]: 2.1 nM
- koff [2]: 0.00155 s⁻¹
- koff [3]: 0.000952 s⁻¹
B2: 9H5 (VHH)
VHH: EVQLVESGGGLVQPGGSLRLSCAASGSIFNLNPMGWYRQAPGKQRELVATVTGEGRTNYSDSVKGRFTISRDNAKNTVYLQMNSLKPEDTAVYYCNAAFWAYDDAYWGQGTQVTVSS
notes: as for B1
